Earlier results in article PMC10229114.
pKd: −log10 of the molar value.

How the values were obtained:
SLy1 SAM (Homo sapiens) = SLy1 SAM (Homo sapiens) (UniProt O75995)
SDF-1α (Homo sapiens) = SDF-1α (Homo sapiens) (UniProt P48061)

SDF-1α, sequence (P48061 24-88): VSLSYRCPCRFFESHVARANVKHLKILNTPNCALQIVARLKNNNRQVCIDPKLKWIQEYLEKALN
SLy1 SAM, sequence (O75995 252-316): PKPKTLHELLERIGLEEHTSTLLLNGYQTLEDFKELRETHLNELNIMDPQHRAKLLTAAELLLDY

| Substance | pKd (SLy1 SAM (Homo sapiens)) | pKd (SDF-1α (Homo sapiens)) |
| --- | --- | --- |
| SLy1 SAM (from UniProt O75995) | 3.93 |  |
| SDF-1α (from UniProt P48061) |  | 3.82 |
